Data taken from patent US20240218337A1.

Assays:
[1] = target: human Gas6 recombinant protein (human) (UniProt Q14393); assay: ELISA, plate-coated test molecule, serially diluted hGas6
[2] = target: PD-L1 on PD-L1 aAPC/CHO-K1 cells (human) (UniProt Q9NZQ7); assay: cell-based or functional assay
[3] = target: Recombinant human PD-L1 protein (human) (UniProt Q9NZQ7); assay: ELISA, plate-coated recombinant human PD-L1, anti-human IgG-HRP

UniProt Q14393, sequence (Q14393 49-678 limits assumed): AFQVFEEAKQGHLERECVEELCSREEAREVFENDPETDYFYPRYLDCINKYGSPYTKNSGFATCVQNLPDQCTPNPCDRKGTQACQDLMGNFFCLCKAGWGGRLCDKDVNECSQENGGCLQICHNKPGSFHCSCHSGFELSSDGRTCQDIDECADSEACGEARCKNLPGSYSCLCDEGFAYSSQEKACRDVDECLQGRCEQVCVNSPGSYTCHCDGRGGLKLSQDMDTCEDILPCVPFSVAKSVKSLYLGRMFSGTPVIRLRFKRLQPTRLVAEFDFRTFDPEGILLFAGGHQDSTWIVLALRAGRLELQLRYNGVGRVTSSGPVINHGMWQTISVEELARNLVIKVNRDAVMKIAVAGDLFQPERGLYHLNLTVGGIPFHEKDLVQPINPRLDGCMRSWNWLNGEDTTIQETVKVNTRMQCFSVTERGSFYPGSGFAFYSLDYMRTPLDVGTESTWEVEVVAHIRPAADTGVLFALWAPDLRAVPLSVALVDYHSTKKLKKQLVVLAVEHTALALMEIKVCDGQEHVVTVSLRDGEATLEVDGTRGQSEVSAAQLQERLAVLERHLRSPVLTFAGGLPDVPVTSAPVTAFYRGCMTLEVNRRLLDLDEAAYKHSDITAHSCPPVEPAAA

EC50 [1] [nM]	PD-L1/PD-1 blockade assay, EC50 (luciferase in PD-1 effector cells) [2] [nM]	EC50 [3] [nM]	Molecule
< 3	–	–	Axl-Fc (Fc fusion)
–	< 3	< 0.1	example_3 (protein, part only; not given: constant regions, Gas6 trap, linker, not shown: a dimerising Fc or GST; small tags and cut ends) heavy, part: EVQLQESGPGLVKPSQTLSLTCTVSGYSITSDYWNWIRKPPGKGLEYMGYISYTGSTYYNPSLKSRITISRDTSKNQYSLKLSSVTAADTAVYYCARRGEWLSPFAYWGQGTLVTVSS light: DIQMTQSPSSLSASVGDRVTITCKSSQSLLYSSNQKNSLAWYQQKPGKAPKLLIYWASTRESGVPSRFSGSGSGTDFTLTISSLQPEDFATYYCQQYYTYPFTFGQGTKLEIK
–	< 3	< 0.1	example_5 (protein, part only; not given: constant regions, Gas6 trap, linker, not shown: a dimerising Fc or GST; small tags and cut ends) heavy, part: EVQLQESGPGLVKPSQTLSLTCTVSGYSITSDYWDWIRKPPGKGLEYMGYISYTGSTYYNPSLRSRITISRDTSKNQYSLKLSSVTAADTAVYYCARRGGWLSPFVYWGQGTLVTVSS light: DIQMTQSPSSLSASVGDRVTITCKSRQSLLFSSNQKNSLAWYQQKPGKAPKLLIYWASTRESGVPSRFSGSGSGTDFTLTISSLQPEDFATYYCQQYYTYPFTFGQGTKLEIK
–	< 3	< 0.1	example_7 (protein, part only; not given: Fc, Gas6 trap, linkers, not shown: small tags and cut ends) chain, part: EVQLQESGPGLVKPSQTLSLTCTVSGYSITSDYWNWIRKPPGKGLEYMGYISYTGSTYYNPSLKSRITISRDTSKNQYSLKLSSVTAADTAVYYCARRGEWLSPFAYWGQGTLVTVSSDIQMTQSPSSLSASVGDRVTITCKSSQSLLYSSNQKNSLAWYQQKPGKAPKLLIYWASTRESGVPSRFSGSGSGTDFTLTISSLQPEDFATYYCQQYYTYPFTFGQGTKLEIK
–	< 3	< 0.1	example_8 (protein, part only; not given: Fc, Gas6 trap, linkers, not shown: small tags and cut ends) chain, part: EVQLQESGPGLVKPSQTLSLTCTVSGYSITSDYWDWIRKPPGKGLEYMGYISYTGSTYYNPSLRSRITISRDTSKNQYSLKLSSVTAADTAVYYCARRGGWLSPFVYWGQGTLVTVSSDIQMTQSPSSLSASVGDRVTITCKSRQSLLFSSNQKNSLAWYQQKPGKAPKLLIYWASTRESGVPSRFSGSGSGTDFTLTISSLQPEDFATYYCQQYYTYPFTFGQGTKLEIK
